According to patent publication US20170233490A1 (Hoffmann-La Roche, published 2017):

Target: T1, HER3 ECD-HRG complex (human, UniProt P21860 20-643)
T1 construct: HER3 ECD preincubated with a 3- to 6-fold molar excess of Heregulin ('open' conformation); biotinylated Her3-ECD in the ribosome display; also called HER3-ECD/HRG1β
Experiment: SPR Biacore 3000, antibody captured via anti-human Fc, 25 C
Description: A CM5 series sensor was mounted into the system and was normalized in HBS-ET buffer (10 mM HEPES pH 7.4, 150 mM NaCl, 3 mM EDTA, 0.005% w/v Tween 20) according to the manufacturer's instructions. The sample buffer was the system buffer supplemented with 1 mg/ml CMD (Carboxymethyldextran, Sigma #86524). The system operated at 25° C. 10000 RU monoclonal murine anti-human Fc antibody (MAK<h-Fc> M-R10Z8 E9, Roche Diagnostics GmbH, Penzberg, Germany) were immobilized using EDC/NHS chemistry on all four flow cells. The sensor was deactivated using 1M ethanolamine.

Kd: 2.1 nM | MR (Molar Ratio): 0.6 | koff: 0.00023 s⁻¹ | kon: 110000 M⁻¹ s⁻¹ | t1/2-diss: 51 min
B1: DIB-MoAb (monovalent antibody based on M-05-74) (antibody, V domains shown)
VH: QVQLQQSGAELAKPGASVKMSCKTSGYTLTDYWIHWVKQRPGQGLEWIGYINPYTGYTESNQKFKDKATLTADKSSNTAYIQLSSLTSEDSAVYYCARPYYYGDYWGQGTTLTVSS
VL: QIVLTQSPAIMSASPGERVTITCSASSSVSYMHWFQQKPGTSPKLLIYSTSNLASGVPARFSGSGSGTSYSLTISRMEAEDAATYYCQQRSSYPFTFGSGTKLEIK
notes: also called DIB-74 in the monovalent MoAb format; monovalent M-05-74
